Results: a protein production outcome set (Wang et al. 2014)

experiment: label from the status in PepcDB records

Protein production, failed:
MEQVSKSHENKAEEQTEGVGLLERLFKLSQHKTTVKTELMAGLTTFVTMSYIMFLNPIIMSKTGMPFDGLFLATCLGAAIATILMGMYANWPVGLAPGMGLNAFFTFSVVGSMGYSWQIALGAVFLSGVIFVLMSVTRLREWMLDSIPMSLRLAMTAGVGLFLGFIGLRFTGIVVANPDNVVALADMTHFGFGQFGPEAPALGFLSFLLIAILSYRKVFGAVLIGIAVTTFIAFAMTWVLPTDFFVVAEAAKSFAPASGFVAYKGLLAIPEFSALEPILWKADIVGAFEVALIPVIVTFLFVNIFDTAGTLMGVAERANLQDENGKIEGLSKSLKADSISSVIGTAFGCPPVTSYVESAAGVAAGGRTGLTAVTIGLLFAAGVFFLPLAQMLPGFAVDGALIYVAMLMMSSLRGLDWDDLTEYAPAVCTTVMMAFTFSIANGIAFGFITYTVLKVGAGKSSQVSNGVWALTVLFVAKFIFLN
MERAFMLNGLLVNLVSGLIVMFISAILYYRKPERKWLLIIIVIGMMSVVTAGIRMLVA
MEREEIIERFLKFFREYAEEGEEPLYMGKIKDLLTITPKRSIVINWMHLNSYDPELAEEVIENPEECILAAEDAIQIILKEDFLREDVPKIHARFHNLPKTLMVKEVGAEHINKLIQVEGVVTRVTEIKPFVSVAVFVCKDCGHEMVVPQKPYEGFVAVKKCEQCGSKNVQLDVEKSKFVNFQMFRIQDRPESLRGGQMPRFIDGILLDDIVDTAMPGDRVIVVGILRVIQEKREKVPTFKKVIEVNHIEPISKELEELEISPEDEQKIRELAKRKDIVSAIVDSIAPAIYGYKEVKKGIALALFGGVSRTLPDGTRLRGDIHVLLVGDPGVAKCVDYDTEVLLGDGRKRKIGEIVEEAIKKAEKEGKLGRVDDGFYAPINLELYALDVRTLKVRKVKADIAWKRTTPEKMLRIRTKRGREIRVTPTHPFFTLEEGRIKTKKAYELKVGEKIATPREEAPEAEIFWDEVVEIEEYKPNNSWVYDLQVPEHHNFIANGIFVHNSQLLRYVANLAPRAIYTSGKSSSAAGLCVAPDTLINTDNGRVEIGKFVEEWMKEVGEISEEGISYAPCFRKVETFKDGKIVESPIRRVWKLRAPKKLVRIKTENGRSIALTRETKLLTINDGELSWVEAGEVKVGTYVGTVKSEKDVIPGAGKTIRDVSKLYNMEMEVKDYLTREEVRKAIEKLEEIMNPMNIKIPGVQESYEELLRKLETTNDERVRNETLILLSDVSDAHELAKEKIEKIKEIVNSEVHWEKVTEVGEVDGVEYVYDLTVEGSHNFVANGFIVHNTAAVVRDEFTGGWVLEAGALVLADGGYALIDELDKMSDRDRSVIHEALEQQTISLSKAGITATLNARTTVIAAANPKHGRFNRMKRVSEQIDLPPTLLSRFDLIFVLMDEPDEKVDSEIARHILKVRRGESEVVTPKIPHELLRKYIAYARKNIHPVISEEAMEEIEKYYVKMRRSAKKSSGDEIKPIPITARQLEALIRLSEAHARMRLSPIVTREDAREAIKLMEYTLKQIAVDEAGQLDVTILEVGQSARKLSKVERILDIVEKLERTSEKGAKIDDILEEAAKFGIEKSEAREILEKLLEKGQIYMPENGYYKTV
MERIAMNPLMQQAIQFANDHETAWDRSVRGNFGVHLDDPPPWNRLLGPVHDRGPVSGVVVVDGQTLASWGEPERADLTFSVAKLYLSILAGVAHDRGLLPDVDEPVGRRVPGIGFDAGRNARITWRHLLQQTSEWEGERFGVPDQADRYRAVAFGIPPDGRKGDARPLQEPGTYWEYNDVRINQLSYALLHLFRRPLPEVFREAVTRPLGASEDWQWVGYDNAWVDIDGVRMPSVPGGTHWGGGMSISARDQALIGRMLLDEGRAADGRQVLSPAWIQAMRTPCDIAPYYGYLIWLNHERKVFPSVPASSFFGIGAGSSFTWVEPERRMVVIVRWLDAAYADALFGRILAAVDAHRAGLEHHHHHH
MERIRWLYGFLACILIAILLAPLQIMAQGEFRTSDQPLVYYIPVEQEVERGLEAFLQRSLDSAVEEGADHIVLEINTPGGRVDAAGNMARALRETDIPITAYVIDQALSAGAYIALNADEIVMAPGSTMGSAAVIDSAGNAADEKAQSYWLAEMRNAAEYNDRDPKYALAMADRSIEIPELDISNEELLTLTASQALEVNYAEAIASNRAELLEHLQIDNAFEQEMEVSFAEKLARFVTNPLIIPILLSIGSLGLVLELYSPGFGVPGIMGISALLLFFFGHLIAGFAGYEAMILFIAGFLLILIEVFMPGFGLFGILGIAGMIGGMLLASFSTAWMLVSLGISAVVTTVVAIITFRYFGSRGPWKKMILTESTSSEKGYITNETRQELVGLIGQSLTPLRPSGSGLFGEERLDVVSEGGYIEQGRKIKVVSTSGSRIVVRETDE
